Measured values: the Immune Epitope Database (IEDB)

How the values were obtained:
HLA-A*02:01 [1] = assay: IEDB peptide-MHC binding, purified MHC/competitive/radioactivity; filed as Kd, often an IC50 or EC50 that approximates it; ≥ and ≤ were set here for values at or beyond the usual limits of such assays
HLA-A*26:01 [2] = assay: IEDB peptide-MHC binding, purified MHC/competitive/fluorescence; filed as Kd, often an IC50 or EC50 that approximates it; ≥ and ≤ were set here for values at or beyond the usual limits of such assays
HLA-B*15:01 [3] = assay: as above
HLA-A*68:02 = assay: IEDB peptide-MHC binding, purified MHC/competitive/radioactivity; filed as Kd, often an IC50 or EC50 that approximates it; ≥ and ≤ were set here for values at or beyond the usual limits of such assays
HLA-B*08:01 = assay: as above
HLA-A*02:03 = assay: as above; details: source organism: Trypanosoma cruzi
HLA-A*02:06 = assay: as above
HLA-A*02:02 = assay: as above
HLA-A*26:01 [4] = assay: as above
HLA-A*01:01 = assay: as above; details: source organism: Dengue virus 3 Martinique/1243/1999
HLA-B*51:01 [5] = assay: IEDB peptide-MHC binding, purified MHC/competitive/fluorescence; filed as Kd, often an IC50 or EC50 that approximates it; ≥ and ≤ were set here for values at or beyond the usual limits of such assays
HLA-B*51:01 [6] = assay: IEDB peptide-MHC binding, purified MHC/competitive/radioactivity; filed as Kd, often an IC50 or EC50 that approximates it; ≥ and ≤ were set here for values at or beyond the usual limits of such assays; details: source organism: Dengue virus 3 Martinique/1243/1999
HLA-A*03:01 = assay: IEDB peptide-MHC binding, purified MHC/competitive/fluorescence; filed as Kd, often an IC50 or EC50 that approximates it; ≥ and ≤ were set here for values at or beyond the usual limits of such assays
HLA-B*35:01 = assay: IEDB peptide-MHC binding, purified MHC/competitive/radioactivity; filed as Kd, often an IC50 or EC50 that approximates it; ≥ and ≤ were set here for values at or beyond the usual limits of such assays; details: source organism: Dengue virus 4 Philippines/H241/1956
HLA-B*07:02 [7] = assay: as above; details: source organism: Dengue virus 4 Philippines/H241/1956
HLA-A*11:01 = assay: IEDB peptide-MHC binding, purified MHC/competitive/fluorescence; ≥ and ≤ were set here for values at or beyond the usual limits of such assays; details: source organism: Vaccinia virus WR
HLA-B*40:01 = assay: IEDB peptide-MHC binding, purified MHC/direct/fluorescence; filed as Kd, often an IC50 or EC50 that approximates it; ≥ and ≤ were set here for values at or beyond the usual limits of such assays; details: source organism: Mycobacterium avium subsp. paratuberculosis
HLA-B*07:02 [8] = assay: as above; details: source organism: Homo sapiens
HLA-A*02:01 [9] = assay: as above; details: source organism: Vaccinia virus Copenhagen
HLA-B*15:01 [10] = assay: as above; details: source organism: Vaccinia virus Copenhagen
[11] = source organism: Escherichia coli str. K-12 substr. MG1655
[12] = source organism: Dengue virus 2 Jamaica/1409/1983
[13] = source organism: Vaccinia virus WR
[14] = source organism: Trypanosoma cruzi
[15] = source organism: Dengue virus 3 Martinique/1243/1999
[16] = source organism: Dengue virus 1 Brazil/97-11/1997
[17] = source organism: Escherichia coli F11
[18] = source organism: Dengue virus 4 Philippines/H241/1956
[19] = source organism: Pan troglodytes

Sequence: AAGLQDCTMLV
- Kd (HLA-A*02:01 [1]; source organism: Hepatitis C virus (isolate 1)): ≥ 50000 nM

Sequence: ALKANNKVY
- Kd (HLA-A*26:01 [2]; [11]): ≥ 20000 nM
- Kd (HLA-B*15:01 [3]; [11]): 708 nM

Sequence: ANNKVYEAY
- Kd (HLA-B*15:01 [3]; [11]): 499 nM

Sequence: DLTDYLMKI
- Kd (HLA-A*68:02; source organism: Homo sapiens): 3720 nM

Sequence: EAAGIFMTA
- Kd (HLA-A*68:02; [12]): 0.37 nM

Sequence: EARVEFGPL
- Kd (HLA-B*08:01; [13]): 177 nM

Sequence: EIAETQHGTI
- Kd (HLA-A*68:02; [12]): 101 nM

Sequence: ELLRPTTVV
- Kd (HLA-A*02:03): 1200 nM
- Kd (HLA-A*02:06; [14]): 1880 nM
- Kd (HLA-A*02:02; [14]): 6010 nM
- Kd (HLA-A*02:01 [1]; [14]): 6710 nM
- Kd (HLA-A*68:02; [14]): 91.8 nM

Sequence: ELQAALARV
- Kd (HLA-A*02:06; source organism: Homo sapiens): 40.5 nM
- Kd (HLA-A*02:02; source organism: Homo sapiens): 117 nM
- Kd (HLA-A*02:01 [1]; source organism: Homo sapiens): 558 nM
- Kd (HLA-A*68:02; source organism: Homo sapiens): 2.06 nM

Sequence: ESPSKLASAI
- Kd (HLA-A*26:01 [4]; [12]): ≥ 66200 nM
- Kd (HLA-A*68:02; [12]): 74.2 nM

Sequence: ETMETLLLL
- Kd (HLA-A*26:01 [4]; [15]): 96.4 nM
- Kd (HLA-A*68:02; [15]): 17.4 nM
- Kd (HLA-A*01:01): 11500 nM

Sequence: EVSETQHGTI
- Kd (HLA-A*68:02; [15]): 193 nM

Sequence: FAIPIAEQI
- Kd (HLA-B*51:01 [5]; source organism: Listeria monocytogenes serotype 4b str. CLIP 80459): ≥ 20000 nM

Sequence: FANYKFTLV
- Kd (HLA-A*02:03): 0.609 nM
- Kd (HLA-A*02:06; [14]): 0.469 nM
- Kd (HLA-A*02:02; [14]): 73.8 nM
- Kd (HLA-A*68:02; [14]): 17.9 nM

Sequence: FANYNFTLL
- Kd (HLA-A*02:03): 3.42 nM
- Kd (HLA-A*02:06; [14]): 0.122 nM
- Kd (HLA-A*02:02; [14]): 0.0839 nM
- Kd (HLA-A*68:02; [14]): 0.151 nM

Sequence: FSRENSYSGV
- Kd (HLA-B*51:01 [6]): ≥ 44800 nM

Sequence: FTVIALFLA
- Kd (HLA-A*02:06; [16]): 3.16 nM
- Kd (HLA-A*68:02; [16]): 136 nM

Sequence: GIAACLMTY
- Kd (HLA-A*03:01; [17]): ≥ 20000 nM
- Kd (HLA-B*15:01 [3]; [17]): 3000 nM

Sequence: HALNELPESL
- Kd (HLA-B*08:01; [18]): 3740 nM

Sequence: IKLTVVVGDI
- Kd (HLA-B*08:01; [15]): 1050 nM

Sequence: IKRRLRTLIL
- Kd (HLA-B*08:01; [15]): 185 nM

Sequence: ILIEGIFFV
- Kd (HLA-A*02:01 [1]; source organism: Human alphaherpesvirus 3): 0.03 nM

Sequence: IPKAYAGPF
- Kd (HLA-B*35:01): 290 nM
- Kd (HLA-B*07:02 [7]): 7.32 nM

Sequence: IRANNNRLP
- IC50 (HLA-A*11:01): ≥ 208000 nM

Sequence: KDAWLSLPK
- Kd (HLA-A*03:01; source organism: Vibrio cholerae): ≥ 20000 nM

Sequence: KEHKGVGFL
- Kd (HLA-B*40:01): 30.3 nM

Sequence: KFFPSSSYRR
- Kd (HLA-A*03:01; source organism: Influenza A virus (A/Fort Monmouth/1/1947-mouse adapted(H1N1))): 4320 nM

Sequence: KVRDRNFQL
- Kd (HLA-B*07:02 [8]): 8.8 nM
- Kd (HLA-A*26:01 [2]; [19]): ≥ 20000 nM
- Kd (HLA-B*51:01 [5]; [19]): ≥ 20000 nM
- Kd (HLA-B*15:01 [3]; [19]): ≥ 20000 nM

Sequence: LFMSHVKSV
- Kd (HLA-A*02:01 [9]): 1750 nM
- Kd (HLA-B*15:01 [10]): 15200 nM
- Kd (HLA-B*08:01; [13]): 3.07 nM

Sequence: LLGLWGFATA
- Kd (HLA-A*02:03): 1.89 nM
- Kd (HLA-A*02:06; [14]): 61.3 nM
- Kd (HLA-A*02:02; [14]): 50.5 nM
- Kd (HLA-A*02:01 [1]; [14]): 65.1 nM
- Kd (HLA-A*68:02; [14]): ≥ 49600 nM

Sequence: LLILCVTQVL
- Kd (HLA-B*08:01; [12]): 979 nM

Sequence: LLLMRTTWA
- Kd (HLA-B*08:01; [18]): 18.5 nM

Sequence: LMRRGDLPV
- Kd (HLA-B*08:01; [12]): 17.8 nM

Sequence: LMWKQITPEL
- Kd (HLA-B*08:01; [12]): 1230 nM
